T1: human FXII (human, UniProt P00748 20-615)
T1 construct: Bought protein; also called factor XII; natural human FXII
T1 sequence (looked up): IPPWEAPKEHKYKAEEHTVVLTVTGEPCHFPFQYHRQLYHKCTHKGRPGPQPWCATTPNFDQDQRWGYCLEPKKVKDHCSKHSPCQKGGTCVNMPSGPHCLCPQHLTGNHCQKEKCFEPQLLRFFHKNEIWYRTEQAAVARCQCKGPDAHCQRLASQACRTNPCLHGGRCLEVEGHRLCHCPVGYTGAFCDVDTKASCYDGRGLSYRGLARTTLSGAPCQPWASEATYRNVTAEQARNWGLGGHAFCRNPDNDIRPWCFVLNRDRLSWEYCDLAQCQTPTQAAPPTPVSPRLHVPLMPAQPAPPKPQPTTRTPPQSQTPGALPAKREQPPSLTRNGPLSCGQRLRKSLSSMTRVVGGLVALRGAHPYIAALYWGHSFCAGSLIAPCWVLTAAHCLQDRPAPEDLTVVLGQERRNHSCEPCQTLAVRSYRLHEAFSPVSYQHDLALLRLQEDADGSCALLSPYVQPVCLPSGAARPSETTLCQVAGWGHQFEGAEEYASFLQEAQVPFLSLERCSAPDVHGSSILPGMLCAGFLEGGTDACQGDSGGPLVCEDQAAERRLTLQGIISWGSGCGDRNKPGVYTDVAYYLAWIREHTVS

T2: biotinylated FXII protein (UniProt P00748 20-615, biotinylated (sites not given))
T2 sequence (looked up): T1 sequence (looked up)

B1: nanobody N4-38 (VHH)
VHH: QVQLVESGGGLVQAGGSLRLSCAASGRTGNAYRMGWFRQAPGKEREFVAAISWNGDSTNYADSVKGRFTISRDNAKNTVYLQMNSLKPEDTAVYYCAVVKGIGVPPNMYDYWGQGTQVTVSS
notes: Alpaca nanobody expressed in E. coli from PET26b; also called N38; N4-38 antibody
B2: nanobody N4-44 (VHH)
VHH: QVQLVESGGGLVQAGGSLRLSCAASGSDFSINAMGWYRQAPGKERELVATISSGGSTYYADSVKGRFTISRDNAKNTLYLHMNTLKPEDTAMYYCAILKGATPGYWGQGTQVTVSS
notes: not shown: 6xHis tag from vector PET26b
B3: nanobody A5-8 (VHH)
VHH: QVQLVESGGGLAQVGGSLRLSCAASGSTFSFKSMGWYREAPGNQRELVAAISSKGIMTNSDSVKGRFTISRDNAKNTVDLHLNNLKPEDTAVYYCNVVEVGVGGLVNVYWGQGTQVTVSS
notes: as for B2

How the values were obtained:
human FXII = molecular target: T1, human FXII; test: ELISA, plate coated with human FXII at 1 ug/mL, nanobody dilutions, anti-6xHis-HRP
Experimental: The titer detection method in Example 1 was as follows: An ELISA plate was coated with human FXII at a protein concentration of 1 μg/mL overnight at 4° C.; then the ELISA plate was washed with PBST buffer and blocked with 5% skimmed milk powder at room temperature for 2 h; the ELISA plate was washed with PBST buffer (which was prepared with 1 L of PBS and 500 μL of Tween 20), then nanobodies at different dilutions were added, and the ELISA plate was incubated for 2 h at room temperature; the ELISA plate was washed with PBST buffer, then an […] (Abcam) was added, and the ELISA plate was incubated for 1 h at room temperature in the dark; the ELISA plate was washed with PBST buffer, a tetramethylbenzidine (TMB) (R&D Systems) substrate solution was added, and a chromogenic reaction was conducted for 5 min to 10 min; and a stop solution (sulfuric acid with a concentration of 2 M) was added, and an OD value of each well was determined at 450 nm by a microplate reader.

[1] = molecular target: T2, biotinylated FXII protein; test: BLI (Fortebio Octet), biotinylated FXII loaded on the biosensor, N4-38 at 50, 20 and 10 ug/mL, 37 C
Experimental: (1) A Fortebio Octet special solution M (a PBST solution including BSA with a mass fraction of 0.5%) was prepared, filtered through a 0.22 μm filter membrane, and stored at 4° C. for later use; (2) a biotinylated FXII protein was diluted to 10 μg/mL, a nanobody N4-38 was diluted to 50 μg/mL, 20 μg/mL, and 10 μg/mL, and resulting samples each were added; (3) a biosensor was placed in a corresponding clean well of a spare box, and […] of the Fortebio Octet special solution M was added to each well corresponding to the biosensor; (4) a program was set as follows: first stage Baseline: 60 s, second stage Loading: 200 s, third stage Baseline 2: 100 s, fourth stage Association: 300 s, fourth stage Dissociation: 300 s, and reaction temperature during the whole process: 37° C.; and (5) after a reaction was completed, data analysis was conducted by software.

Row | Binder | titer (human FXII) | Kd [1] [nM]
1 | B1 | 220 | 3.07
2 | B2 | 220 | 
3 | B3 | 220 | 

— patent publication US20230295343A1 (NINGBO COMGEN BIOTECH, published 2023)
